Test results from patent publication US20150225704.

Molecular target: myc-tagged full-length palmitoyl acyl transferase zinc-finger DHHC type containing 17 (zD17) (UniProt Q8IUH5)
Sequence (Q8IUH5 whole entry): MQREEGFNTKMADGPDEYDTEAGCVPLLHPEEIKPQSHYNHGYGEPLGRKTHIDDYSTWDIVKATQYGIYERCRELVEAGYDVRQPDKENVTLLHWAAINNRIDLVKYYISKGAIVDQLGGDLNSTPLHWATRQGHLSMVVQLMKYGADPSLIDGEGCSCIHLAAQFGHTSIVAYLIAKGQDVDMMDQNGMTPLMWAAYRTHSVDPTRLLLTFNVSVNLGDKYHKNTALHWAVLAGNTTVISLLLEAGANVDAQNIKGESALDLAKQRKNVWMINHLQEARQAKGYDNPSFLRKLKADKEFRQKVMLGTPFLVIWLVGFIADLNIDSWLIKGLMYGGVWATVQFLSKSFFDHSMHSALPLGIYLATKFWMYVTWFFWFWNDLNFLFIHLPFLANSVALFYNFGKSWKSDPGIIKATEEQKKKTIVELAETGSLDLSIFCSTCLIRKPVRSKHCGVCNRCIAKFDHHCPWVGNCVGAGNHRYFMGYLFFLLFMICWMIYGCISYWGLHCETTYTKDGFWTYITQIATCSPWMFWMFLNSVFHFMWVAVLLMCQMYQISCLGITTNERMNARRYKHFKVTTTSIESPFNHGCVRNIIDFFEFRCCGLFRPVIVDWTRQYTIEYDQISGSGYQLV

FLAG-kiMKK7 (kinase-inactive MKK7)
JNK3 phosphorylation: resulting in attenuated JNK3 phosphorylation
